The assay addresses BMPER_N (Homo sapiens (Human), UniProt Q8N8U9). Kind of assay: SPR (Tsg on chip); one cell MST.

Drawing on paper PMC5080453 (2016), this text covers Kd for one molecule.

Sequence of BMPER_N (Q8N8U9 40-369): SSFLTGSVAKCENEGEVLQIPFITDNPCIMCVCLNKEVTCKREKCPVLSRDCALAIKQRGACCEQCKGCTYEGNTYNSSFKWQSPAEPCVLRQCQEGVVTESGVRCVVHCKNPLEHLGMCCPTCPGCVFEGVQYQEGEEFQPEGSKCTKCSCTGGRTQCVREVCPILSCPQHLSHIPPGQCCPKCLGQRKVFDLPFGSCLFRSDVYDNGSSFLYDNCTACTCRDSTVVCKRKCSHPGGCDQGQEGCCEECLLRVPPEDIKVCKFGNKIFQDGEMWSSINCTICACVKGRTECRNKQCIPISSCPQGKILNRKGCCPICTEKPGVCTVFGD

B1: TWSG1 (protein)
chain: CNKALCASDVSKCLIQELCQCRPGEGNCSCCKECMLCLGALWDECCDCVGMCNPRNYSDTPPTSKSTVEELHEPIPSLFRALTEGDTQLNWNIVSFPVAEELSHHENLVSFLETVNQPHHQNVSVPSNNVHAPYSSDKEHMCTVVYFDDCMSIHQCKISCESMGASKYRWFHNACCECIGPECIDYGSKTVKCMNCMF
As a reminder, the Kd is the equilibrium constant for the complex coming apart. Take B1: binding was put at a Kd of 0.55 nM. That is a sub-nanomolar value.
